From paper PMC5156543 (Molecular Biology of the Cell, 2016) come the findings set out here.

This assay concerns the target T1, Vps35-3xHA (S. cerevisiae, UniProt P34110 1-944).
T1 sequence: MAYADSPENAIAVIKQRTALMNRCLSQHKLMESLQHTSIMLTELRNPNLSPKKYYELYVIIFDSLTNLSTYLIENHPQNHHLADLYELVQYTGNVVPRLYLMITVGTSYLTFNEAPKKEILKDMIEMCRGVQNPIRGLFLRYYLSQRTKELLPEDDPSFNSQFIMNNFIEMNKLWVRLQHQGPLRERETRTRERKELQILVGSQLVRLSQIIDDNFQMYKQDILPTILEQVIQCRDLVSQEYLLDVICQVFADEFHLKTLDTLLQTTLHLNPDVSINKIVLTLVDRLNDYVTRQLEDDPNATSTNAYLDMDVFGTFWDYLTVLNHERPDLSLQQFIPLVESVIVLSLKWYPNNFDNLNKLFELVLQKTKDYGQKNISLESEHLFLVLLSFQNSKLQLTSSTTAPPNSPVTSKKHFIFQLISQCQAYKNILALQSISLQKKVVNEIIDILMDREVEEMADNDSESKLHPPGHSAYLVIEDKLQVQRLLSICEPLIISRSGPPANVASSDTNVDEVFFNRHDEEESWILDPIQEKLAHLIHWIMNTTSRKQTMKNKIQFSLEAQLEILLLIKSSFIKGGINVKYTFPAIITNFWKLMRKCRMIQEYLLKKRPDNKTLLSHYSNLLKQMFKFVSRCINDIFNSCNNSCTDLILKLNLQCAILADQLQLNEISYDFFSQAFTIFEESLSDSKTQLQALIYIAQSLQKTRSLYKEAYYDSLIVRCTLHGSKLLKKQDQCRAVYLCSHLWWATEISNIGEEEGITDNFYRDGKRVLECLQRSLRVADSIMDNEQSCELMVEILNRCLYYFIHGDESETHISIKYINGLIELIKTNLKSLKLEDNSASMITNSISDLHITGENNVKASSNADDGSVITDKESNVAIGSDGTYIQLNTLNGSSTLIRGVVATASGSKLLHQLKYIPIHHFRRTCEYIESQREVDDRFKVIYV
The assay is described as follows: co-IP.

B1: Δ63-125Chs3-GFP (natural protein)
chain: MTGLNGDDPDDYYLNLNQDEESLLRSRHSVGSGAPHRQGSLVRPERSRLNNPDNPHFYYAQKDEGVAEDEFDKDGDVDNFEESSTQPINKSIKPLRKETNDTLSFWQMYCYFITFWAPAPILAFCGMPKKERQMAWREKVALISVILYIGAIVAFLTFGFTKTVCSSSKLRLKNNEVSTEFVVINGKAYELDTSSRSGIQDVEVDSDTLYGPWSDAGKDASFLFQNVNGNCHNLITPKSNSSIPHDDDNNLAWYFPCKLKNQDGSSKPNFTVENYAGWNCHTSKEDRDAFYGLKSKADVYFTWDGIKNSSRNLIVYNGDVLDLDLLDWLEKDDVDYPVVFDDLKTSNLQGYDLSLVLSNGHERKIARCLSEIIKVGEVDSKTVGCIASDVVLYVSLVFILSVVIIKFIIACYFRWTVARKQGAYIVDNKTMDKHTNDIEDWSNNIQTKAPLKEVDPHLRPKKYSKKSLGHKRASTFDLLKKHSSKMFQFNESVIDLDTSMSSSLQSSGSYRGMTTMTTQNAWKLSNENKAVHSRNPSTLLPTSSMFWNKATSSPVPGSSLIQSLDSTIIHPDIVQQPPLDFMPYGFPLIHTICFVTCYSEDEEGLRTTLDSLSTTDYPNSHKLLMVVCDGLIKGSGNDKTTPEIALGMMDDFVTPPDEVKPYSYVAVASGSKRHNMAKIYAGFYKYDDSTIPPENQQRVPIITIVKCGTPAEQGAAKPGNRGKRDSQIILMSFLEKITFDERMTQLEFQLLKNIWQITGLMADFYETVLMVDADTKVFPDALTHMVAEMVKDPLIMGLCGETKIANKAQSWVTAIQVFEYYISHHQAKAFESVFGSVTCLPGCFSMYRIKSPKGSDGYWVPVLANPDIVERYSDNVTNTLHKKNLLLLGEDRFLSSLMLKTFPKRKQVFVPKAACKTIAPDKFKVLLSQRRRWINSTVHNLFELVLIRDLCGTFCFSMQFVIGIELIGTMVLPLAICFTIYVIIFAIVSKPTPVITLVLLAIILGLPGLIVVITATRWSYLWWMCVYICALPIWNFVLPSYAYWKFDDFSWGDTRTIAGGNKKAQDENEGEFDHSKIKMRTWREFEREDILNRKEESDSFVA
As for B1, the “level of coIP relative to wild-type Chs3” value is ~0.25 of the level with wild-type Chs3.
